Reference: patent US20140087995A1 (published 2014)
Numbered stars: 1 amine (or outer) side, 2 acyl side, 3 side chain; on linkers, the order of the positions; unused ones are H or OH. Bridge positions count the residues as written; N and C are the ends. Side chains are listed from the residue outwards. Ends that are not written are not given here. * marks the point of attachment. C20 diacid = O=C(O)CCCCCCCCCCCCCCCCCCC(=O)*; γGlu = O=C(O)[C@H](CCC(=O)[*:2])N[*:1]

T1: human calcitonin receptor (human, UniProt P30988 25-474)
T1 construct: whole, on cells; Assayed as cell membranes of BHK tk'ts 13 cells stably transfected with the human calcitonin receptor (Assay VII); also called hCTR; hCT
T1 sequence (looked up): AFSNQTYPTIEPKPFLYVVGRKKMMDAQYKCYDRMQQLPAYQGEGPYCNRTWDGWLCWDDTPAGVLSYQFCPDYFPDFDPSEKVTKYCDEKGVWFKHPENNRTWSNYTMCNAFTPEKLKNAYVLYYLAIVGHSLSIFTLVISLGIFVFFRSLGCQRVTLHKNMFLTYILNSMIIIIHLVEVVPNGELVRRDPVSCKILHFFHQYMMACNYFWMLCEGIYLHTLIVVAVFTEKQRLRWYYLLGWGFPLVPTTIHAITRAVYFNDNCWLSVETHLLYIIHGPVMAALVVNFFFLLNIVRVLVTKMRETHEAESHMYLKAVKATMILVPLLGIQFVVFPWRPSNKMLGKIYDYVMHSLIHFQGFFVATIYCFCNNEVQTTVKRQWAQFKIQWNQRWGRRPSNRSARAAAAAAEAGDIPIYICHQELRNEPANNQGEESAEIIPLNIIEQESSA


Legend:
[1] = molecular target: T1, human calcitonin receptor; assay: IC50 at hCTR divided by IC50 at hAmylin-R (SPA competition assays V and VII)
Procedure, shortened: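 Competition binding by SPA uses membrane preparations (35 ng/μL final) in pH 7.4 Hepes buffer with 1 mM CaCl2 and 5 mM MgCl₂. Incubation lasts 120 min at 25° C, and IC₅₀ comes from one-site fitting.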

[2] = molecular target: T1, human calcitonin receptor; assay: SPA competition vs 125I-calcitonin, membranes of BHK cells with human calcitonin receptor (Assay VII)
Procedure, shortened: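 BHK hCTR membranes 35 ng/μL + SPA beads 0.05 mg/well; buffer 50 mM Hepes pH 7.4, 1 mM CaCl2, 5 mM MgCl₂, 0.1% OA, 0.02% Tween20. 120 min, 25° C., shaking. Scintillation count; IC50 by one-site binding competition.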

Binder | Ratio hCT/hAmylin binding [1] | IC50 [2]
K([γGlu-C20 diacid])CNTATCATQRLAHFLRHSSPNFGAIPSSTPVGSNTY-NH2 (disulfide 2-7; N-terminus assumed; SMILES CC[C@H](C)[C@H](NC(=O)[C@H](C)NC(=O)CNC(=O)[C@H](Cc1ccccc1)NC(=O)[C@H](CC(N)=O)NC(=O)[C@@H]1CCCN1C(=O)[C@H](CO)NC(=O)[C@H](CO)NC(=O)[C@H](Cc1c[nH]cn1)NC(=O)[C@H](CCCNC(=N)N)NC(=O)[C@H](CC(C)C)NC(=O)[C@H](Cc1ccccc1)NC(=O)[C@H](Cc1c[nH]cn1)NC(=O)[C@H](C)NC(=O)[C@H](CC(C)C)NC(=O)[C@H](CCCNC(=N)N)NC(=O)[C@H](CCC(N)=O)NC(=O)[C@@H](NC(=O)[C@H](C)NC(=O)[C@@H]1CSSC[C@H](NC(=O)[C@@H](N)CCCCNC(=O)CC[C@H](NC(=O)CCCCCCCCCCCCCCCCCCC(=O)O)C(=O)O)C(=O)N[C@@H](CC(N)=O)C(=O)N[C@@H]([C@@H](C)O)C(=O)N[C@@H](C)C(=O)N[C@@H]([C@@H](C)O)C(=O)N1)[C@@H](C)O)C(=O)N1CCC[C@H]1C(=O)N[C@@H](CO)C(=O)N[C@@H](CO)C(=O)N[C@H](C(=O)N1CCC[C@H]1C(=O)N[C@H](C(=O)NCC(=O)N[C@@H](CO)C(=O)N[C@@H](CC(N)=O)C(=O)N[C@H](C(=O)N[C@@H](Cc1ccc(O)cc1)C(N)=O)[C@@H](C)O)C(C)C)[C@@H](C)O, also called compound 62) | 63 | 6.17 nM
K([γGlu-C20 diacid])CNTATCATQRLAHFLRHSSPNFGAIPSSTNVGSHTY-NH2 (disulfide 2-7; N-terminus assumed; SMILES CC[C@H](C)[C@H](NC(=O)[C@H](C)NC(=O)CNC(=O)[C@H](Cc1ccccc1)NC(=O)[C@H](CC(N)=O)NC(=O)[C@@H]1CCCN1C(=O)[C@H](CO)NC(=O)[C@H](CO)NC(=O)[C@H](Cc1c[nH]cn1)NC(=O)[C@H](CCCNC(=N)N)NC(=O)[C@H](CC(C)C)NC(=O)[C@H](Cc1ccccc1)NC(=O)[C@H](Cc1c[nH]cn1)NC(=O)[C@H](C)NC(=O)[C@H](CC(C)C)NC(=O)[C@H](CCCNC(=N)N)NC(=O)[C@H](CCC(N)=O)NC(=O)[C@@H](NC(=O)[C@H](C)NC(=O)[C@@H]1CSSC[C@H](NC(=O)[C@@H](N)CCCCNC(=O)CC[C@H](NC(=O)CCCCCCCCCCCCCCCCCCC(=O)O)C(=O)O)C(=O)N[C@@H](CC(N)=O)C(=O)N[C@@H]([C@@H](C)O)C(=O)N[C@@H](C)C(=O)N[C@@H]([C@@H](C)O)C(=O)N1)[C@@H](C)O)C(=O)N1CCC[C@H]1C(=O)N[C@@H](CO)C(=O)N[C@@H](CO)C(=O)N[C@H](C(=O)N[C@@H](CC(N)=O)C(=O)N[C@H](C(=O)NCC(=O)N[C@@H](CO)C(=O)N[C@@H](Cc1c[nH]cn1)C(=O)N[C@H](C(=O)N[C@@H](Cc1ccc(O)cc1)C(N)=O)[C@@H](C)O)C(C)C)[C@@H](C)O, also called compound 66) | 45.5 | 18 nM
K([γGlu-C20 diacid])CNTATCATQRLAEFLRHSSPNFGAIPSSTNVGSRTY-NH2 (disulfide 2-7; N-terminus assumed; SMILES CC[C@H](C)[C@H](NC(=O)[C@H](C)NC(=O)CNC(=O)[C@H](Cc1ccccc1)NC(=O)[C@H](CC(N)=O)NC(=O)[C@@H]1CCCN1C(=O)[C@H](CO)NC(=O)[C@H](CO)NC(=O)[C@H](Cc1c[nH]cn1)NC(=O)[C@H](CCCNC(=N)N)NC(=O)[C@H](CC(C)C)NC(=O)[C@H](Cc1ccccc1)NC(=O)[C@H](CCC(=O)O)NC(=O)[C@H](C)NC(=O)[C@H](CC(C)C)NC(=O)[C@H](CCCNC(=N)N)NC(=O)[C@H](CCC(N)=O)NC(=O)[C@@H](NC(=O)[C@H](C)NC(=O)[C@@H]1CSSC[C@H](NC(=O)[C@@H](N)CCCCNC(=O)CC[C@H](NC(=O)CCCCCCCCCCCCCCCCCCC(=O)O)C(=O)O)C(=O)N[C@@H](CC(N)=O)C(=O)N[C@@H]([C@@H](C)O)C(=O)N[C@@H](C)C(=O)N[C@@H]([C@@H](C)O)C(=O)N1)[C@@H](C)O)C(=O)N1CCC[C@H]1C(=O)N[C@@H](CO)C(=O)N[C@@H](CO)C(=O)N[C@H](C(=O)N[C@@H](CC(N)=O)C(=O)N[C@H](C(=O)NCC(=O)N[C@@H](CO)C(=O)N[C@@H](CCCNC(=N)N)C(=O)N[C@H](C(=O)N[C@@H](Cc1ccc(O)cc1)C(N)=O)[C@@H](C)O)C(C)C)[C@@H](C)O, also called compound 51) | 37.5 | 31.1 nM

More lines, in order of falling IC50 [2], values ahead:

Ratio hCT/hAmylin binding [1] | IC50 [2] | Binder
91.8 | 80.4 nM | K([γGlu-C20 diacid])CNTATCATQRLAHFLRHSSPNFGAIPSSTNVGRNTY-NH2 (disulfide 2-7; N-terminus assumed; SMILES CC[C@H](C)[C@H](NC(=O)[C@H](C)NC(=O)CNC(=O)[C@H](Cc1ccccc1)NC(=O)[C@H](CC(N)=O)NC(=O)[C@@H]1CCCN1C(=O)[C@H](CO)NC(=O)[C@H](CO)NC(=O)[C@H](Cc1c[nH]cn1)NC(=O)[C@H](CCCNC(=N)N)NC(=O)[C@H](CC(C)C)NC(=O)[C@H](Cc1ccccc1)NC(=O)[C@H](Cc1c[nH]cn1)NC(=O)[C@H](C)NC(=O)[C@H](CC(C)C)NC(=O)[C@H](CCCNC(=N)N)NC(=O)[C@H](CCC(N)=O)NC(=O)[C@@H](NC(=O)[C@H](C)NC(=O)[C@@H]1CSSC[C@H](NC(=O)[C@@H](N)CCCCNC(=O)CC[C@H](NC(=O)CCCCCCCCCCCCCCCCCCC(=O)O)C(=O)O)C(=O)N[C@@H](CC(N)=O)C(=O)N[C@@H]([C@@H](C)O)C(=O)N[C@@H](C)C(=O)N[C@@H]([C@@H](C)O)C(=O)N1)[C@@H](C)O)C(=O)N1CCC[C@H]1C(=O)N[C@@H](CO)C(=O)N[C@@H](CO)C(=O)N[C@H](C(=O)N[C@@H](CC(N)=O)C(=O)N[C@H](C(=O)NCC(=O)N[C@@H](CCCNC(=N)N)C(=O)N[C@@H](CC(N)=O)C(=O)N[C@H](C(=O)N[C@@H](Cc1ccc(O)cc1)C(N)=O)[C@@H](C)O)C(C)C)[C@@H](C)O, also called compound 85)
45.2 | 31.4 nM | K([γGlu-C20 diacid])CNTATCATQRLANFLRHSSPNFGAIPSSTNVGSHTY-NH2 (disulfide 2-7; N-terminus assumed; SMILES CC[C@H](C)[C@H](NC(=O)[C@H](C)NC(=O)CNC(=O)[C@H](Cc1ccccc1)NC(=O)[C@H](CC(N)=O)NC(=O)[C@@H]1CCCN1C(=O)[C@H](CO)NC(=O)[C@H](CO)NC(=O)[C@H](Cc1c[nH]cn1)NC(=O)[C@H](CCCNC(=N)N)NC(=O)[C@H](CC(C)C)NC(=O)[C@H](Cc1ccccc1)NC(=O)[C@H](CC(N)=O)NC(=O)[C@H](C)NC(=O)[C@H](CC(C)C)NC(=O)[C@H](CCCNC(=N)N)NC(=O)[C@H](CCC(N)=O)NC(=O)[C@@H](NC(=O)[C@H](C)NC(=O)[C@@H]1CSSC[C@H](NC(=O)[C@@H](N)CCCCNC(=O)CC[C@H](NC(=O)CCCCCCCCCCCCCCCCCCC(=O)O)C(=O)O)C(=O)N[C@@H](CC(N)=O)C(=O)N[C@@H]([C@@H](C)O)C(=O)N[C@@H](C)C(=O)N[C@@H]([C@@H](C)O)C(=O)N1)[C@@H](C)O)C(=O)N1CCC[C@H]1C(=O)N[C@@H](CO)C(=O)N[C@@H](CO)C(=O)N[C@H](C(=O)N[C@@H](CC(N)=O)C(=O)N[C@H](C(=O)NCC(=O)N[C@@H](CO)C(=O)N[C@@H](Cc1c[nH]cn1)C(=O)N[C@H](C(=O)N[C@@H](Cc1ccc(O)cc1)C(N)=O)[C@@H](C)O)C(C)C)[C@@H](C)O, also called compound 60) [N^ε1-[(4S)-4-carboxy-4-(19-carboxynonadecanoylamino)butanoyl]-[Arg17,Pro21,Pro27,His35]-h-amylin]
87.2 | 23.6 nM | K([γGlu-C20 diacid])CNTATCATQRLAHFLRHSSPNFGAIPSSTNVGHNTY-NH2 (disulfide 2-7; N-terminus assumed; SMILES CC[C@H](C)[C@H](NC(=O)[C@H](C)NC(=O)CNC(=O)[C@H](Cc1ccccc1)NC(=O)[C@H](CC(N)=O)NC(=O)[C@@H]1CCCN1C(=O)[C@H](CO)NC(=O)[C@H](CO)NC(=O)[C@H](Cc1c[nH]cn1)NC(=O)[C@H](CCCNC(=N)N)NC(=O)[C@H](CC(C)C)NC(=O)[C@H](Cc1ccccc1)NC(=O)[C@H](Cc1c[nH]cn1)NC(=O)[C@H](C)NC(=O)[C@H](CC(C)C)NC(=O)[C@H](CCCNC(=N)N)NC(=O)[C@H](CCC(N)=O)NC(=O)[C@@H](NC(=O)[C@H](C)NC(=O)[C@@H]1CSSC[C@H](NC(=O)[C@@H](N)CCCCNC(=O)CC[C@H](NC(=O)CCCCCCCCCCCCCCCCCCC(=O)O)C(=O)O)C(=O)N[C@@H](CC(N)=O)C(=O)N[C@@H]([C@@H](C)O)C(=O)N[C@@H](C)C(=O)N[C@@H]([C@@H](C)O)C(=O)N1)[C@@H](C)O)C(=O)N1CCC[C@H]1C(=O)N[C@@H](CO)C(=O)N[C@@H](CO)C(=O)N[C@H](C(=O)N[C@@H](CC(N)=O)C(=O)N[C@H](C(=O)NCC(=O)N[C@@H](Cc1c[nH]cn1)C(=O)N[C@@H](CC(N)=O)C(=O)N[C@H](C(=O)N[C@@H](Cc1ccc(O)cc1)C(N)=O)[C@@H](C)O)C(C)C)[C@@H](C)O, also called compound 81)
